From publication PMC7898959, “Identification of an amino-terminus determinant critical for ryanodine receptor/Ca^2+ release channel function” (Cardiovascular Research, 2020)
Changes are numbered by the printed parent chain. Numbers in names are those of the source.

B1: NT^Δβ23–β24 (RyR2 residues 1–906, residues 399–401 removed) (domain or fragment, human, UniProt Q92736 1-906, looked up)
chain: MADGGEGEDEIQFLRTDDEVVLQCTATIHKEQQKLCLAAEGFGNRLCFLESTSNSKNVPPDLSICTFVLEQSLSVRALQEMLANTVEKSEGQVDVEKWKFMMKTAQGGGHRTLLYGHAILLRHSYSGMYLCCLSTSRSSTDKLAFDVGLQEDTTGEACWWTIHPASKQRSEGEKVRVGDDLILVSVSSERYLHLSYGNGSLHVDAAFQQTLWSVAPISSGSEAAQGYLIGGDVLRLLHGHMDECLTVPSGEHGEEQRRTVHYEGGAVSVHARSLWRLETLRVAWSGSHIRWGQPFRLRHVTTGKYLSLMEDKNLLLMDKEKADVKSTAFTFRSSKEKLDVGVRKEVDGMGTSEIKYGDSVCYIQHVDTGLWLTYQSVDVKSVRMGSIQRKAIMHHEGHGISLSRSQHEESRTARVIRSTVFLFNRFIRGLDALSKKAKASTVDLPIESVSLSLQDLIGYFHPPDEHLEHEDKQNRLRALKNRQNLFQEEGMINLVLECIDRLHVYSSAAHFADVAGREAGESWKSILNSLYELLAALIRGNRKNCAQFSGSLDWLISRLERLEASSGILEVLHCVLVESPEALNIIKEGHIKSIISLLDKHGRNHKVLDVLCSLCVCHGVAVRSNQHLICDNLLPGRDLLLQTRLVNHVSSMRPNIFLGVSEGSAQYKKWYYELMVDHTEPFVTAEATHLRVGWASTEGYSPYPGGGEEWGGNGVGDDLFSYGFDGLHLWSGCIARTVSSPNQHLLRTDDVISCCLDLSAPSISFRINGQPVQGMFENFNIDGLFFPVVSFSAGIKVRFLLGGRHGEFKFLPPPGYAPCYEAVLPKEKLKVEHSREYKQERTYTRDLLGPTVSLTQAAFTPIPVDTSQIVLPPHLERIREKLAENIHELWVMNKIELGWQYGP
notes: cardiac ryanodine receptor (RyR2), N-terminus, residues 1-906, with residues 399-401 removed; source: HEK293, transiently transfected, in cell homogenate; not shown: cMyc, N-terminal, kept
B2: NT^(E173A + K174A) (RyR2 residues 1–906) (domain or fragment, human, UniProt Q92736 1-906, looked up)
chain: MADGGEGEDEIQFLRTDDEVVLQCTATIHKEQQKLCLAAEGFGNRLCFLESTSNSKNVPPDLSICTFVLEQSLSVRALQEMLANTVEKSEGQVDVEKWKFMMKTAQGGGHRTLLYGHAILLRHSYSGMYLCCLSTSRSSTDKLAFDVGLQEDTTGEACWWTIHPASKQRSEGAAVRVGDDLILVSVSSERYLHLSYGNGSLHVDAAFQQTLWSVAPISSGSEAAQGYLIGGDVLRLLHGHMDECLTVPSGEHGEEQRRTVHYEGGAVSVHARSLWRLETLRVAWSGSHIRWGQPFRLRHVTTGKYLSLMEDKNLLLMDKEKADVKSTAFTFRSSKEKLDVGVRKEVDGMGTSEIKYGDSVCYIQHVDTGLWLTYQSVDVKSVRMGSIQRKAIMHHEGHMDDGISLSRSQHEESRTARVIRSTVFLFNRFIRGLDALSKKAKASTVDLPIESVSLSLQDLIGYFHPPDEHLEHEDKQNRLRALKNRQNLFQEEGMINLVLECIDRLHVYSSAAHFADVAGREAGESWKSILNSLYELLAALIRGNRKNCAQFSGSLDWLISRLERLEASSGILEVLHCVLVESPEALNIIKEGHIKSIISLLDKHGRNHKVLDVLCSLCVCHGVAVRSNQHLICDNLLPGRDLLLQTRLVNHVSSMRPNIFLGVSEGSAQYKKWYYELMVDHTEPFVTAEATHLRVGWASTEGYSPYPGGGEEWGGNGVGDDLFSYGFDGLHLWSGCIARTVSSPNQHLLRTDDVISCCLDLSAPSISFRINGQPVQGMFENFNIDGLFFPVVSFSAGIKVRFLLGGRHGEFKFLPPPGYAPCYEAVLPKEKLKVEHSREYKQERTYTRDLLGPTVSLTQAAFTPIPVDTSQIVLPPHLERIREKLAENIHELWVMNKIELGWQYGP
notes: cardiac ryanodine receptor (RyR2), N-terminus, residues 1-906, double alanine substitution E173 + K174; negative control mutant; source: HEK293, transiently transfected, in cell homogenate; not shown: cMyc, N-terminal, kept
B3: NT^(D179A + D180A) (RyR2 residues 1–906) (domain or fragment, human, UniProt Q92736 1-906, looked up)
chain: B2 chain with A173E, A174K, D179A, D180A
notes: cardiac ryanodine receptor (RyR2), N-terminus, residues 1-906, double alanine substitution D179 + D180; also called D179A + D180A mutant; source: HEK293, transiently transfected, in cell homogenate; not shown: cMyc, N-terminal, kept
B4: wild-type RyR2 N-terminus (NT, residues 1–906) tagged with the cMyc epitope (domain or fragment, human, UniProt Q92736 1-906, looked up)
chain: B2 chain with A173E, A174K
notes: cardiac ryanodine receptor (RyR2), N-terminus, residues 1-906; species is stated for the full-length RyR2 cDNA (human), not for NT itself; also called NT^WT; source: HEK293, transiently transfected, in cell homogenate (cross-linking) or CHAPS-solubilized lysate (co-IP); not shown: cMyc, N-terminal, kept
B5: NT^(K167A + Q168A) (RyR2 residues 1–906) (domain or fragment, human, UniProt Q92736 1-906, looked up)
chain: B2 chain with K167A, Q168A, A173E, A174K
notes: cardiac ryanodine receptor (RyR2), N-terminus, residues 1-906, double alanine substitution K167 + Q168; source: HEK293, transiently transfected, in cell homogenate; not shown: cMyc, N-terminal, kept
B6: NT^R176Q (RyR2 residues 1–906 with the arrhythmia-linked R176Q mutation) (domain or fragment, human, UniProt Q92736 1-906, looked up)
chain: B2 chain with A173E, A174K, R176Q
notes: cardiac ryanodine receptor (RyR2), N-terminus, residues 1-906, with the disease-linked (ARVD2, CPVT) mutation R176Q; source: HEK293, transiently transfected, in cell homogenate (cross-linking) or CHAPS-solubilized lysate (co-IP); not shown: cMyc, N-terminal, kept
B7: NT^Δβ8–β9 (RyR2 residues 1–906, residues 167–178 removed) (domain or fragment, human, UniProt Q92736 1-906, looked up)
chain: MADGGEGEDEIQFLRTDDEVVLQCTATIHKEQQKLCLAAEGFGNRLCFLESTSNSKNVPPDLSICTFVLEQSLSVRALQEMLANTVEKSEGQVDVEKWKFMMKTAQGGGHRTLLYGHAILLRHSYSGMYLCCLSTSRSSTDKLAFDVGLQEDTTGEACWWTIHPASDDLILVSVSSERYLHLSYGNGSLHVDAAFQQTLWSVAPISSGSEAAQGYLIGGDVLRLLHGHMDECLTVPSGEHGEEQRRTVHYEGGAVSVHARSLWRLETLRVAWSGSHIRWGQPFRLRHVTTGKYLSLMEDKNLLLMDKEKADVKSTAFTFRSSKEKLDVGVRKEVDGMGTSEIKYGDSVCYIQHVDTGLWLTYQSVDVKSVRMGSIQRKAIMHHEGHMDDGISLSRSQHEESRTARVIRSTVFLFNRFIRGLDALSKKAKASTVDLPIESVSLSLQDLIGYFHPPDEHLEHEDKQNRLRALKNRQNLFQEEGMINLVLECIDRLHVYSSAAHFADVAGREAGESWKSILNSLYELLAALIRGNRKNCAQFSGSLDWLISRLERLEASSGILEVLHCVLVESPEALNIIKEGHIKSIISLLDKHGRNHKVLDVLCSLCVCHGVAVRSNQHLICDNLLPGRDLLLQTRLVNHVSSMRPNIFLGVSEGSAQYKKWYYELMVDHTEPFVTAEATHLRVGWASTEGYSPYPGGGEEWGGNGVGDDLFSYGFDGLHLWSGCIARTVSSPNQHLLRTDDVISCCLDLSAPSISFRINGQPVQGMFENFNIDGLFFPVVSFSAGIKVRFLLGGRHGEFKFLPPPGYAPCYEAVLPKEKLKVEHSREYKQERTYTRDLLGPTVSLTQAAFTPIPVDTSQIVLPPHLERIREKLAENIHELWVMNKIELGWQYGP
notes: also called β8–β9 loop deletion; source: HEK293, transiently transfected, in cell homogenate (cross-linking) or CHAPS-solubilized lysate (co-IP); not shown: cMyc, N-terminal, kept

Target: the molecule itself
Experiment: cross-linking; HEK293 cell homogenate (20 μg) with glutaraldehyde (0.0025% or 260 μmol/L) for 0 min to 1 h under reducing (10 mM DTT) conditions; SDS-PAGE and blot with Ab^cMyc; tetramer formation T = ODT/(ODT + ODM) × 100 by densitometry

Protein	stoichiometry N
B1	4
B2	4
B3	4
B4	4
B5	4
B6	4
B7	4
